Assay results: US20140335107A1 (published 2014)

T1: human CD79b (human, UniProt P40259 29-229)
T1 construct: endogenous CD79b on B-cell lines (BJAB, BJAB-luciferase, DoHH-2); also called PRO36249; CD79b expressed on the surface of BJAB-luciferase cells
T1 sequence: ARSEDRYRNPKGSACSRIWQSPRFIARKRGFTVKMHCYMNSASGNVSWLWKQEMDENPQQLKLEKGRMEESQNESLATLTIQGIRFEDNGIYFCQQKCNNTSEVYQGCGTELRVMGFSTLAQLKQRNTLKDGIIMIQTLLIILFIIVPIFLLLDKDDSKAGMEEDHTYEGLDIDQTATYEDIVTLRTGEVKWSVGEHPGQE

T2: extracellular domain of human CD79b fused to Fc (huCD79becd-Fc) (human, UniProt P40259 29-159)
T2 construct: expressed in CHO cells; also called huCD79b-Fc; not shown: Fc part of the fusion is not described
T2 sequence: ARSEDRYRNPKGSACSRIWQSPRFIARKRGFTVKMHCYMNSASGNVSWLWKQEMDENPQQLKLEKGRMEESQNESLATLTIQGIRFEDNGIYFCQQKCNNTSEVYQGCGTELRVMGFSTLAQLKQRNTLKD

T3: extracellular domain of human CD79b (huCD79becd) (human, UniProt P40259 29-159)
T3 construct: expressed in CHO cells
T3 sequence: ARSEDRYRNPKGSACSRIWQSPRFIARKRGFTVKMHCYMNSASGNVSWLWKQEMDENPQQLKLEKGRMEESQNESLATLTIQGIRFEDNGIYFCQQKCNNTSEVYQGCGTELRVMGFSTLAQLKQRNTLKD


Columns and labels:
human CD79b [1] = molecular target: T1, human CD79b; experiment: Scatchard analysis, 125I-labeled IgG competed with unlabeled IgG on BJAB cells stably expressing cynomolgus CD79b and endogenous human CD79b
Method: To further determine binding of the IgG variants having changes in HVR-L2 and HVR-H3 (huMA79b L2/H3), binding of iodinated IgG variants to BJAB cells expressing human CD79b and cynomologous CD79b was analyzed and Scatchard analysis was performed.
For Scatchard analysis, 0.5 nM I¹²⁵ labeled MA79b or huMA79b L2/H3 was competed against unlabeled MA79b or huMA79b L2/H3, respectively, ranging from 50 to 0.02 nM (12 step 1:2 serial dilution) in the presence of a transfected BJAB line stably expressing cynomologous-CD79b and endogenous human-CD79b. After a four hour incubation at 4° C., cells were washed and cell pellet counts were read by a gamma counter (1470 WIZARD Automatic Gamma Counter; Perkin Elmer, Walthem, Mass.). All points were done in triplicate and counted for 10 minutes. The average CPM was used for Kd calculation using the New Ligand (Genentech, South San Francisco, Calif.) program.

[2] = molecular target: T2, extracellular domain of human CD79b …; experiment: Biacore (SPR), Fab against IgG on immobilized huCD79becd-Fc
Method: (§1) Binding of Fab and IgG variants of MA79b, the MA79b-grafted “humanized” antibody or MA79b-grafted “humanized” antibody variants to immobilized huCD79becd or huCD79b-Fc or the 16 amino acid peptide containing the epitope for MA79b was measured by surface plasma resonance. Affinity determinations were performed by surface plasmon resonance using a BIAcore™-2000. The antigen, huCD79becd or huCD79b-Fc was immobilized (approximately 50-200 RU) in 10 mM sodium acetate pH 4.8 on a CM5 sensor chip. Due to a large avidity effect, affinity measurements were sensitive to the amount of huCD79becd immobilized. For this reason, affinities, determined for samples run on different days, were normalized to MA79b that was run along side as a standard. In experiments that measured binding to the 16 amino acid peptide containing the epitope for MA79b ([…]) (SEQ ID NO: 16), the biotinylated peptide was captured (approximately 20 RU) on a streptavidin coated sensor chip. Purified MA79b-grafted “humanized” antibody variant (as Fab or IgG) (a 2-fold serial dilution of 0.5 to 1000 nM in PBST) was injected at a flow rate of 30 μL/min. Each sample was analyzed with 4-minute association and 10-minute disassociation. After each injection the chip was regenerated using 10 mM Glycine pH 1.7. […]

[3] = molecular target: T2, extracellular domain of human CD79b …; experiment: Biacore (SPR), Fab
Method: as §1

[4] = molecular target: T3, extracellular domain of human CD79b …; experiment: Biacore (SPR), IgG
Method: as §1

human CD79b [5] = molecular target: T1, human CD79b; experiment: Scatchard analysis on BJAB cells stably expressing cynomolgus CD79b and endogenous human CD79b
human CD79b [6] = molecular target: T1, human CD79b; experiment: FACS on BJAB-luciferase cells
Method: The binding affinity of thio huMA79b.v18, thio huMA79b.v28 drug conjugates and thio MA79b drug conjugates to CD79b expressed on BJAB-luciferase cells was determined by FACS analysis. Further, the binding affinity of thio anti-cynoCD79b(ch10D10) drug conjugates to CD79b expressed on BJAB cells expressing cynoCD79b was determined by FACS analysis.
Briefly, approximately 1×10⁶ cells in 100 μl were contacted with varying amounts (1.0 μg, 01. μg or 0.01 μg of Ab per million cells of BJAB-luciferase cells or BJAB cells expressing cynoCD79b (for anti-cynoCD79b thioMAbs)) of one of the following anti-CD79b thioMAb drug conjugates or naked (unconjugated Ab as a control): (1) thio MA79b-LC(V205C)-MC-MMAF or (2) thio MA79b-HC(A118C)-MC-MMAF (FIGS. 29A-B, respectively); (3) thio huMA79b.v18-HC(A118C)-MC-MMAF, (4) thio huMA79b.v18-HC(A118C)-MC-vcPAB-MMAE or (5) thio huMA79b.v18-HC(A118C)-BMPEO-DM1 (FIGS. 30B-D, respectively); (6) thio huMA79b.v28-HC(A118C)-MCvcPAB-MMAE, (7) thio huMA79b.v28-HC(A118C)-BMPEO-DM1, or (8) thio huMA79b.v28-HC(A118C)-MC-MMAF (see FIGS. 31B-31D, respectively); or (9) thio anti-cynoCDb79(ch10D10)-HC(A118C)-MCvcPAB-MMAE, (10) thio anti-cynoCD79b(ch10D10)-HC(A118C)-BMPEO-DM1 or (11) thio anti-cynoCD79b(ch10D10)-HC(A118C)-MC-MMAF (see FIGS. 32B-32D, respectively). PE conjugated mouse anti-human Ig was used as the secondary detecting antibody (BD Cat#555787).

Binder	binding result (human CD79b [6])	further results
murine anti-CD79b monoclonal antibody MA79b (antibody, V domains shown, murine monoclonal IgG; 125I-labeled in the Scatchard assay; also called murine CD79b antibody) VL: DIVLTQSPASLAVSLGQRATISCKASQSVDYDGDSFLNWYQQKPGQPPKLFIYAASNLESGIPARFSGSGSGTDFTLNIHPVEEEDAATYYCQQSNEDPLTFGAGTELELKR VH: EVQLQQSGAELMKPGASVKISCKATGYTFSSYWIEWVKQRPGHGLEWIGEILPGGGDTNYNEIFKGKATFTADTSSNTAYMQLSSLTSEDSAVYYCTRRVPVYFDYWGQGTSVTVSS		Kd (human CD79b [1]): 630 pM; fold avidity component (dimeric IgG binding against monomeric Fab binding) [2]: 100 fold
huMA79b graft variant with HVR-L2 of SEQ ID NO: 22 (huMA79b L2-2), Fab (Fab, name in Kabat numbering, V domains shown, selected as Fab on phage; also made as soluble Fab for FACS and Biacore; also called L2-2 mutation) VH: EVQLVESGGGLVQPGGSLRLSCAASGYTFSSYWIEWVRQAPGKGLEWVGEILPGGGDTNYNEIFKGRFTISADTSKNTAYLQMNSLRAEDTAVYYCTRRVPVYFDYWGQGTLVTVSS VL: DIQMTQSPSSLSASVGDRVTITCKASQSVDYDGDSFLNWYQQKPGKAPKLLIYAARKLGRGVPSRFSGSGSGTDFTLTISSLQPEDFATYYCQQSNEDPLTFGQGTKVEIKR		fold improvement in monomeric binding compared to MA79b (Fab) [3]: 5 fold
MA79b-grafted humanized antibody variant 18 (huMA79b.v18) (antibody, human IgG1, kappa, IgG) light: DIQLTQSPSSLSASVGDRVTITCKASQSVDYDGDSFLNWYQQKPGKAPKLLIYAASNLESGVPSRFSGSGSGTDFTLTISSLQPEDFATYYCQQSNEDPLTFGQGTKVEIKRTVAAPSVFIFPPSDEQLKSGTASVVCLLNNFYPREAKVQWKVDNALQSGNSQESVTEQDSKDSTYSLSSTLTLSKADYEKHKVYACEVTHQGLSSPVTKSFNRGEC heavy: not shown		fold improvement in dimeric binding compared to variant 17 [4]: 2 fold
MA79b-grafted humanized antibody variant 28 (huMA79b.v28) (antibody, human IgG1, kappa, IgG) light: DIQLTQSPSSLSASVGDRVTITCKASQSVDYEGDSFLNWYQQKPGKAPKLLIYAASNLESGVPSRFSGSGSGTDFTLTISSLQPEDFATYYCQQSNEDPLTFGQGTKVEIKRTVAAPSVFIFPPSDEQLKSGTASVVCLLNNFYPREAKVQWKVDNALQSGNSQESVTEQDSKDSTYSLSSTLTLSKADYEKHKVYACEVTHQGLSSPVTKSFNRGEC heavy: not shown		Kd (human CD79b [5]): 440 pM
MA79b-grafted humanized antibody variant 32 (huMA79b.v32) (antibody, human IgG1, kappa, V domains shown, IgG) VH: EVQLVESGGGLVQPGGSLRLSCAASGYTFSSYWIEWVRQAPGKGLEWIGEILPGGGDTNYNEIFKGRATFSADTSKNTAYLQMNSLRAEDTAVYYCTRRVPIRLDYWGQGTLVTVSS VL: DIQLTQSPSSLSASVGDRVTITCKASQSVDYSGDSFLNWYQQKPGKAPKLFIYAASNLESGVPSRFSGSGSGTDFTLTISSLQPEDFATYYCQQSNEDPLTFGQGTKVEIKR		Kd (human CD79b [5]): 240 pM
thio huMA79b.v18-HC(A118C)-BMPEO-DM1 (antibody, human IgG1, kappa, BMPEO-DM1 on the engineered Cys at EU position 118 (sequential position 118; Kabat position 114), TDC; also called huMA79b.v18-HC(A118C) thioMAb-BMPEO-DM1) light: DIQLTQSPSSLSASVGDRVTITCKASQSVDYDGDSFLNWYQQKPGKAPKLLIYAASNLESGVPSRFSGSGSGTDFTLTISSLQPEDFATYYCQQSNEDPLTFGQGTKVEIKRTVAAPSVFIFPPSDEQLKSGTASVVCLLNNFYPREAKVQWKVDNALQSGNSQESVTEQDSKDSTYSLSSTLTLSKADYEKHKVYACEVTHQGLSSPVTKSFNRGEC heavy: not shown	binds	
thio huMA79b.v18-HC(A118C)-MC-MMAF (antibody, human IgG1, kappa, MC-MMAF on the engineered Cys at EU position 118 (sequential position 118; Kabat position 114), TDC) light: DIQLTQSPSSLSASVGDRVTITCKASQSVDYDGDSFLNWYQQKPGKAPKLLIYAASNLESGVPSRFSGSGSGTDFTLTISSLQPEDFATYYCQQSNEDPLTFGQGTKVEIKRTVAAPSVFIFPPSDEQLKSGTASVVCLLNNFYPREAKVQWKVDNALQSGNSQESVTEQDSKDSTYSLSSTLTLSKADYEKHKVYACEVTHQGLSSPVTKSFNRGEC heavy: not shown	binds	
thio huMA79b.v18-HC(A118C)-MCvcPAB-MMAE (antibody, human IgG1, kappa, MC-val-cit-PAB-MMAE on the engineered Cys at EU position 118 (sequential position 118; Kabat position 114), TDC) light: DIQLTQSPSSLSASVGDRVTITCKASQSVDYDGDSFLNWYQQKPGKAPKLLIYAASNLESGVPSRFSGSGSGTDFTLTISSLQPEDFATYYCQQSNEDPLTFGQGTKVEIKRTVAAPSVFIFPPSDEQLKSGTASVVCLLNNFYPREAKVQWKVDNALQSGNSQESVTEQDSKDSTYSLSSTLTLSKADYEKHKVYACEVTHQGLSSPVTKSFNRGEC heavy: not shown	binds	
thio huMA79b.v28-HC(A118C)-MCvcPAB-MMAE (antibody, human IgG1, kappa, MC-val-cit-PAB-MMAE on the engineered Cys at EU position 118 (sequential position 118; Kabat position 114), TDC; also called thio huMA79b.v28-HC(A118C)-MC-val-cit-PAB-MMAE) light: DIQLTQSPSSLSASVGDRVTITCKASQSVDYEGDSFLNWYQQKPGKAPKLLIYAASNLESGVPSRFSGSGSGTDFTLTISSLQPEDFATYYCQQSNEDPLTFGQGTKVEIKRTVAAPSVFIFPPSDEQLKSGTASVVCLLNNFYPREAKVQWKVDNALQSGNSQESVTEQDSKDSTYSLSSTLTLSKADYEKHKVYACEVTHQGLSSPVTKSFNRGEC heavy: not shown	binds	
thio huMA79b.v28-HC(A118C)-BMPEO-DM1 (antibody, human IgG1, kappa, BMPEO-DM1 on the engineered Cys at EU position 118 (sequential position 118; Kabat position 114), TDC) light: DIQLTQSPSSLSASVGDRVTITCKASQSVDYEGDSFLNWYQQKPGKAPKLLIYAASNLESGVPSRFSGSGSGTDFTLTISSLQPEDFATYYCQQSNEDPLTFGQGTKVEIKRTVAAPSVFIFPPSDEQLKSGTASVVCLLNNFYPREAKVQWKVDNALQSGNSQESVTEQDSKDSTYSLSSTLTLSKADYEKHKVYACEVTHQGLSSPVTKSFNRGEC heavy: not shown	binds	
thio huMA79b.v28-HC(A118C)-MC-MMAF (antibody, human IgG1, kappa, MC-MMAF on the engineered Cys at EU position 118 (sequential position 118; Kabat position 114), TDC) light: DIQLTQSPSSLSASVGDRVTITCKASQSVDYEGDSFLNWYQQKPGKAPKLLIYAASNLESGVPSRFSGSGSGTDFTLTISSLQPEDFATYYCQQSNEDPLTFGQGTKVEIKRTVAAPSVFIFPPSDEQLKSGTASVVCLLNNFYPREAKVQWKVDNALQSGNSQESVTEQDSKDSTYSLSSTLTLSKADYEKHKVYACEVTHQGLSSPVTKSFNRGEC heavy: not shown	binds	
